Measured values published in article PMC9763423.

Molecular target: JOSD1 (UniProt Q15040)
Assay: co-immunoprecipitation, immunoblot
Conditions: reference: Flag-MCL1 WT; sites S159

binding against the reference: stronger
Substance: MCL-1 (from UniProt Q07820) Flag-MCL1 S159A
